The source of these data is US20240124553A1.

What all share (test): flow cytometry, transfected 293T cells
(In general: In flow cytometry, cells or beads pass a laser one at a time.)

In test [1] the target is CHIKV E2-E1 envelope glycoproteins (strain S27), E2 mutant D59A (chikungunya virus strain S27) (UniProt Q8JUX5).
Test [2] concerns the target CHIKV E2-E1 envelope glycoproteins (strain S27), E2 mutant H62A (chikungunya virus strain S27) (UniProt Q8JUX5).
The target of test [3] is CHIKV E2-E1 envelope glycoproteins (strain S27), E2 mutant K47A (chikungunya virus strain S27) (UniProt Q8JUX5).
Test [4] addresses CHIKV E2-6K-E1 envelope proteins (strain S27) with E2 C203A (Chikungunya virus strain S27) (UniProt Q8JUX5).
Test [5] concerns the target CHIKV E2-6K-E1 envelope proteins (strain S27) with E2 C220A (Chikungunya virus strain S27) (UniProt Q8JUX5).
The target in test [6] is CHIKV E2-6K-E1 envelope proteins (strain S27) with E2 G186A (Chikungunya virus strain S27) (UniProt Q8JUX5).
Test [7] concerns the target CHIKV E2-6K-E1 envelope proteins (strain S27) with E2 G204A (Chikungunya virus strain S27) (UniProt Q8JUX5).
The target in test [8] is CHIKV E2-6K-E1 envelope proteins (strain S27) with E2 G205A (Chikungunya virus strain S27) (UniProt Q8JUX5).
In test [9] the target is CHIKV E2-6K-E1 envelope proteins (strain S27) with E2 G209A (Chikungunya virus strain S27) (UniProt Q8JUX5).
Test [10] addresses CHIKV E2-6K-E1 envelope proteins (strain S27) with E2 I190A (Chikungunya virus strain S27) (UniProt Q8JUX5).
Test [11] addresses CHIKV E2-6K-E1 envelope proteins (strain S27) with E2 K189A (Chikungunya virus strain S27) (UniProt Q8JUX5).
Test [12] has as its target CHIKV E2-6K-E1 envelope proteins (strain S27) with E2 K200A (Chikungunya virus strain S27) (UniProt Q8JUX5).
For test [13], the target named is CHIKV E2-6K-E1 envelope proteins (strain S27) with E2 K215A (Chikungunya virus strain S27) (UniProt Q8JUX5).
Test [14] concerns the target CHIKV E2-6K-E1 envelope proteins (strain S27) with E2 L180A (Chikungunya virus strain S27) (UniProt Q8JUX5).
Test [15] concerns the target CHIKV E2-6K-E1 envelope proteins (strain S27) with E2 L181A (Chikungunya virus strain S27) (UniProt Q8JUX5).
In test [16] the target is CHIKV E2-6K-E1 envelope proteins (strain S27) with E2 L210A (Chikungunya virus strain S27) (UniProt Q8JUX5).
Test [17] has as its target CHIKV E2-6K-E1 envelope proteins (strain S27) with E2 N187A (Chikungunya virus strain S27) (UniProt Q8JUX5).
Test [18] addresses CHIKV E2-6K-E1 envelope proteins (strain S27) with E2 N202A (Chikungunya virus strain S27) (UniProt Q8JUX5).
Test [19] concerns the target CHIKV E2-6K-E1 envelope proteins (strain S27) with E2 N219A (Chikungunya virus strain S27) (UniProt Q8JUX5).
Test [20] addresses CHIKV E2-6K-E1 envelope proteins (strain S27) with E2 Q183A (Chikungunya virus strain S27) (UniProt Q8JUX5).
Test [21] addresses CHIKV E2-6K-E1 envelope proteins (strain S27) with E2 Q184A (Chikungunya virus strain S27) (UniProt Q8JUX5).
Test [22] addresses CHIKV E2-6K-E1 envelope proteins (strain S27) with E2 R198A (Chikungunya virus strain S27) (UniProt Q8JUX5).
Test [23] deals with CHIKV E2-6K-E1 envelope proteins (strain S27) with E2 S185A (Chikungunya virus strain S27) (UniProt Q8JUX5).
Test [24] addresses CHIKV E2-6K-E1 envelope proteins (strain S27) with E2 S194A (Chikungunya virus strain S27) (UniProt Q8JUX5).
The target of test [25] is CHIKV E2-6K-E1 envelope proteins (strain S27) with E2 S206A (Chikungunya virus strain S27) (UniProt Q8JUX5).
In test [26] the target is CHIKV E2-6K-E1 envelope proteins (strain S27) with E2 T191A (Chikungunya virus strain S27) (UniProt Q8JUX5).
For test [27], the target named is CHIKV E2-6K-E1 envelope proteins (strain S27) with E2 T196A (Chikungunya virus strain S27) (UniProt Q8JUX5).
Test [28] addresses CHIKV E2-6K-E1 envelope proteins (strain S27) with E2 T212A (Chikungunya virus strain S27) (UniProt Q8JUX5).
For test [29], the target named is CHIKV E2-6K-E1 envelope proteins (strain S27) with E2 V192A (Chikungunya virus strain S27) (UniProt Q8JUX5).
The target of test [30] is CHIKV E2-6K-E1 envelope proteins (strain S27) with E2 V197A (Chikungunya virus strain S27) (UniProt Q8JUX5).
In test [31] the target is CHIKV E2-6K-E1 envelope proteins (strain S27) with E2 V216A (Chikungunya virus strain S27) (UniProt Q8JUX5).
Test [32] has as its target CHIKV E2-6K-E1 envelope proteins (strain S27) with E2 Y199A (Chikungunya virus strain S27) (UniProt Q8JUX5).

Take CHIKV mAb C9 (antibody): the values for the Binding Reactivity (% WT) in test [1], in test [2] and in [3] were 71.8 % WT, 93.1 % WT and 84 % WT, respectively.

Take CHIKV mAb CHKV-88 (antibody): the Binding Reactivity (% WT) in test [1] turned out to be 86.1 % WT; in [2] it was 101 % WT; in test [3], 100 % WT.

In the case of CHIKV mAb IM-CKV065 (antibody), the Binding Reactivity (% WT) in test [1] turned out to be 72.8 % WT; in [2], 88.5 % WT; in test [3], 85.5 % WT.

In the case of CHIKV mAb IM-CKV063 (antibody), the Binding Reactivity (% WT) in test [1] is 81.1 % WT; in test [2], 79.6 % WT; in test [3], 72.1 % WT.

On to “Mxra8-Fc (mouse Mxra8 extracellular domain fused to mouse IgG2b Fc) (Fc fusion)”, for which the Binding Reactivity (% WT) was determined as 10.4 % WT in test [4]; 60.2 % WT in test [5]; 108 % WT in test [6]; 76.7 % WT in test [7]; 78.9 % WT in test [8]; 77.9 % WT in test [9]. Further, the Binding Reactivity (% WT) in test [10] came to 9.4 % WT; in test [11], 156 % WT; in test [12], 75.5 % WT; in test [13] it was 106 % WT; in test [14] it was 57 % WT; in test [15], 53.2 % WT. Also, the Binding Reactivity (% WT) came to 70.1 % WT in [16]; 90.5 % WT in test [17]; 80.6 % WT in test [18]; 66.6 % WT in test [19]; 96.1 % WT in test [20]; 130 % WT in test [21]. Moreover, the Binding Reactivity (% WT) in test [22] came to 74 % WT; in test [23] it was 88.1 % WT; in test [24], 87 % WT; in test [25] it was 52.2 % WT; in [26], 87.4 % WT; in [27] it was 86.6 % WT. In addition, the Binding Reactivity (% WT) in test [28] is 94.6 % WT; in test [29], 56.9 % WT; in test [30] it was 33.9 % WT; in test [31] it was 82.9 % WT; in test [32], 15.9 % WT; in test [1], 78.9 % WT. The Binding Reactivity (% WT) in test [2] and in [3] was 102 % WT in each case.
